Measurements taken from patent US20150211000A1 (GLYCOFI, published 2015).

Target: T1, PCSK9 (Proprotein convertase subtilisin/kexin type 9) antigen, Alexa 647-conjugated (Pan troglodytes (Chimpanzee); Homo …, UniProt A8T644 31-152; Q8NBP7 153-692, Alexa 647-conjugated)
T1 construct: also called fluorophore-conjugated PCSK9 antigen; fluorophore-labeled PCSK-9 antigen
Test: flow cytometry / FACS of Fab-displaying Pichia pastoris labeled with Alexa 647-conjugated PCSK9

T1 sequence (A8T644 31-152 limits assumed, chain 1 of 2): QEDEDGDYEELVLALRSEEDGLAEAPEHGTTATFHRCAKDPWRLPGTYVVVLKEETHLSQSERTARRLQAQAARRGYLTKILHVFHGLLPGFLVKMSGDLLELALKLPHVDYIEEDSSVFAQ
T1 sequence (A8T644 other isoform, or with tags, fused parts or gaps limits assumed, chain 2 of 2): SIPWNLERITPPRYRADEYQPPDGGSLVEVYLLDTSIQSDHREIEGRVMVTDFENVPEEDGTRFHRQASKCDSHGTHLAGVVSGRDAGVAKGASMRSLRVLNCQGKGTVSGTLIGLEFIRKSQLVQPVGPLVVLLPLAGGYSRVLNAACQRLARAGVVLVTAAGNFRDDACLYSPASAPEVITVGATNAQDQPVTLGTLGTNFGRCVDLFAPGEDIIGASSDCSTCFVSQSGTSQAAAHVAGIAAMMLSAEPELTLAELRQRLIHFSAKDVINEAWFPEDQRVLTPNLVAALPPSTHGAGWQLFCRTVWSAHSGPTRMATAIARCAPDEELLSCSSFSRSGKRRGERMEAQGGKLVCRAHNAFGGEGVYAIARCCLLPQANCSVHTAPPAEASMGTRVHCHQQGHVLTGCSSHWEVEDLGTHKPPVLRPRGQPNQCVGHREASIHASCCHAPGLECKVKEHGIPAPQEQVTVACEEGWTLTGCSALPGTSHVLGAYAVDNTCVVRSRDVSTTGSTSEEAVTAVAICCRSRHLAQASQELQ

B1: anti-CD20 (Genmab) Fab fragment, heavy chain fused to GR1 coiled coil peptide, displayed on Pichia pastoris strain YGLY7761 (Fab, V domains shown)
VH: AVQLVESGGGLVQPGRSLRLSCAASGFTFGDYTMHWVRQAPGKGLEWVSGISWNSGSIGYADSVKGRFTISRDNAKNSLYLQMNSLRAEDTALYYCTKDNQYGSGSTYGLGVWGQGTLVTVSS
VL: EIVLTQSPATLSLSPGERATLSCRASQSVSSYLAWYQQKPGQAPRLLIYDASNRATGIPARFSGSGSGTDFTLTISSLEPEDFAVYYCQQRSNWPLTFGGGTKVEIKR
notes: also called α-CD20; anti-CD20 Fab fragment Genmab; not shown: linker and tags of vector pGLY3958 between CH1 and GR1
  binding result: no binding
